Laboratory results reported in patent US20220056137A1 (GIGAGEN, published 2022).
Residue numbers refer to the chain shown, from its start.

B1: antibody A10 (antibody, V domains shown)
VH: QVQLVESGGGVVQPGRSLRLSCAASGFTFSSYGMHWVRQAPGKGLEWVAVIWYDGINKYYADSVKGRFTISRDNSKNTLYLQMNSLRAEDTAVYYCARDSTASPFDYWGQGTLVTVSS
VL: EIVMTQSPATLSLSPGERATLSCRASQSVSSSYLSWYQQKPGQAPRLLIYGASTRATGIPARFSGSGSGTDFTLTISSLQPEDFAVYYCQQDYNLPHTFGQGTKLEIK
notes: Tested as full-length mAb made in CHO cells; also called L10H10
B2: antibody A6 (antibody, V domains shown)
VH: B1 VH with Y53F, I56S, S100K, A102V, Y107I, L113M
VL: EIVMTQSPATLSLSPGERATLSCRASQSVSSSYLSWYQQKPGQAPRLLIYGASTRATGIPARFSGSGSGTDFTLTISSLQPEDFAVYYCQQDYNLFTFGPGTKVDIK
notes: Tested as full-length mAb made in CHO cells; also called L6H6
B3: antibody A1 (antibody, V domains shown)
VH: QVQLVQSGAEVKKPGASVKVSCKASGFTFTSYDINWVRQATGQGLEWMGWMHPNSGITGYAQKFQGRVTMTRNTSISTAYMELSSLSSEDTAVYFCARYYYVSGSYDYWGQGTLVTVSS
VL: B1 VL with R24W, H97Y
notes: Tested as full-length mAb made in CHO cells; also called L1H1
B4: antibody A14 (antibody, V domains shown)
VH: B1 VH with I56S, N57V, S100R, A102G, S103V
VL: B1 VL
notes: Tested as full-length mAb made in CHO cells; also called L14H14
B5: antibody A9 (antibody, V domains shown)
VH: B1 VH with Y53F, I56N, S100V, A102T, S103V
VL: B1 VL with I49M, H97Y
notes: Tested as full-length mAb made in CHO cells; also called L9H9
B6: antibody A13 (antibody, V domains shown)
VH: QVQLQESGPGLVKPSETLSLTCTVSGGSISSYYWSWIRQPPGKGLEWIGYIHYSGSTKYNPSLKSRVTISLDTSKNQFSLKLSSVTAADTAVYYCARDRGIGAFDIWGQGTMVTVSS
VL: B2 VL with F96I, P100Q, K103R, V104L, D105E
notes: Tested as full-length mAb made in CHO cells; also called L13H13
B7: antibody A11 (antibody, V domains shown)
VH: QVQLVESGGGVVQPGRSLRLSCAASGFTFSSYGIHWVRQAPGKGLEWVAVIWSDGSNKFYADSVKGRFTISRDNSKNTLFLQMSSLRAEDTAVYYCARDIAAAIDYWGQGTLVTVSS
VL: AIQMTQSPSSLSASVGDRVTITCRASQGIRNDLGWYQQKPGKAPKLLIYAASSLQSGVPSRFSGSGSGTDFTLTISSLQPEDFATYYCLQDYNYPYTFGQGTKLEIK
notes: Tested as full-length mAb made in CHO cells; also called L11H11
B8: antibody A15 (antibody, V domains shown)
VH: QLQLQESGPGLVKPSETLSLTCTVSGGSFNRSNYYWGWIRQPPGKGLEWIGSIYYSGSTYYNPSLKSRLTISADTSKTQFSLKRNSVTAADTAVYYCAREDIVVVPAAQPPHFYFGMDVWGQGTTVTVSS
VL: B7 VL with A1D, L46R, D70E, D91H, Y92D, N93S, Y96L, Q100G, L104V
notes: Tested as full-length mAb made in CHO cells; also called L15H15
B9: antibody A3 (antibody, V domains shown)
VL: B7 VL with G28D, K39Q, Y96P, L104V
V domain: QVQLVESGGGVVQPGRSLRLSCAASGFTFSNYGMHWVRQAPGKGLEWVAVIWFDGNTKYYTDSVKGRFTISRDNSKNTLYLQMNSLRAEDTAVYYCARDTTMVPMDVWGQGTTATVSS
notes: Tested as full-length mAb made in CHO cells; also called L3H3
B10: antibody A12 (antibody, V domains shown)
VH: QVQLVESGGGVVQPGRSLRLSCAASGFTFSSYGMHWVRQAPGKGLEWVAVIWYDGSNKSYADSVKGRFTFSRDNSKNTLYLQMNSLRAEDTAVYYCARDMDYFGLDVWGQGTTVTVSS
VL: B7 VL with A1D, L46R, D70E, D91H, Y92N, N93S, Y96R, L104V
notes: Tested as full-length mAb made in CHO cells; also called L12H12
B11: antibody A17 (antibody, V domains shown)
VH: QVQLQESGPGLVKPSETLSLTCTVSGGSISGYSWSWIRQPPGKGLEWIGYIYYSGSTNNNPSLKSRVTISVDTSKNQFSLKLSSVTAADTAVYFCARDDGIAVAGYYFYYGLDVWGQGTTVTVSS
VL: B7 VL with A1D, L46R, D70E, D91H, Y92N, N93T, Y96W, L104V
notes: Tested as full-length mAb made in CHO cells; also called L17H17
B12: antibody A2 (antibody, V domains shown)
VH: EVQLVESGGGLVQPGGSLRLSCAASGFTFSRYDMSWVRQAPGKGLEWVSTISGSGGSTYYADSVKGRFTISRDNSKTTLYLQMISLRAEDTAVYYCAKAGFTMIVVAFDYWGQGTLVTVSS
VL: DIQMTQSPSSLSASVGDRVTITCRASQGISNYLAWFQQKPGKAPKSLIYAASSLQSGVPSKFSGSGSGTDFTLTISSLQPEDFATYYCQQYNSYPYTFGQGTKLEIK
notes: Tested as full-length mAb made in CHO cells; also called L2H2
B13: antibody A18 (antibody, V domains shown)
VH: QVQLVESGGGVVQPGRSLRLSCAASGFTFSSFALHWVRQAPGKGLEWVAVLWYDGISKYYADSVKGRFTISRDNSKNTLYLQMNSLRAEDTAVYYCARDVVGVHDAFDIWGQGTMVTVSS
VL: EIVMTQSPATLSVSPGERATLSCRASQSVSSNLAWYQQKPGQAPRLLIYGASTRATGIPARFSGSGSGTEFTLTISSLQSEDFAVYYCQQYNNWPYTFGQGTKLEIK
notes: also called L18H18
B14: antibody A23 (antibody, V domains shown)
VH: QVQLVQSGAEVKKPGASVKVSCKASGYTFTNYGISWVRQAPGQGLEWMGWISAYNGNTNYEQKVQGRVTMTTDTSTSTAYMELRSLRSDDTAVYYCARSLTGLFDYWGQGTLVTVSS
VL: DIQMTQSPSSLSASVGDRVTITCRASQGIRNDLGWYQQKPGKAPKRLIYAASSLQSGVPSRFSGSGSGTEFTLTISSLQPEDFATYYCLQHNSYPMFTFGQGTKLEIK
B15: antibody A20 (antibody, V domains shown)
VH: B11 VH with G31S, S33Y, N59Y, F94Y, G100R, A104G, G105P, F108Y, L112M
VL: B7 VL with A1D, L46R, D70E, D91H, Y92N, N93S
notes: Tested as full-length mAb made in CHO cells; also called L20H20
B16: antibody A16 (antibody, V domains shown)
VH: B10 VH with S59Y, F70I, K76N, N77D, Y80F, M100F, Y102W, L105M
VL: B7 VL with A1D, L46R, D70E, D91H, Y92N, N93S, Y96R, L104V
notes: Tested as full-length mAb made in CHO cells; also called L16H16
B17: antibody A19 (antibody, V domains shown)
VH: QVQLVESGGGVVQPGRSLRLSCVASGFTFSSYGMHWVRQAPGKGLEWVAVIWYDGSNKFYIDSVKGRFTISRDNSKNTLYLQMNSLRAEDTAVYYCARGGAVAGTSWYYYYGMDVWGQGTTVTVSS
VL: DIQLTQSPSFLSASVGDRVTITCRASQGISSYLAWYQQKPGKAPKLLIYDASTLQSGVPSRFSGSGSGTEFTLTISSLQPEDFAIYYCQQLNTYPLTFGGGTKVEIK
notes: Tested as full-length mAb made in CHO cells; also called L19H19
B18: antibody A21 (antibody, V domains shown)
VH: B17 VH with V23A, I61E, A101V, V102N, A103W, G104N, T105D, S106V, W107G
VL: B17 VL with S9P, D50A, I85T, T93S, L96F, G100Q, V104L
notes: Tested as full-length mAb made in CHO cells; also called L21H21

These binders were tested against PD-L1 expressed on CHO cells (human, UniProt Q9NZQ7 19-290) (assay: cell-based or functional assay).
Chain of PD-L1 expressed on CHO cells (Q9NZQ7 19-290 limits assumed): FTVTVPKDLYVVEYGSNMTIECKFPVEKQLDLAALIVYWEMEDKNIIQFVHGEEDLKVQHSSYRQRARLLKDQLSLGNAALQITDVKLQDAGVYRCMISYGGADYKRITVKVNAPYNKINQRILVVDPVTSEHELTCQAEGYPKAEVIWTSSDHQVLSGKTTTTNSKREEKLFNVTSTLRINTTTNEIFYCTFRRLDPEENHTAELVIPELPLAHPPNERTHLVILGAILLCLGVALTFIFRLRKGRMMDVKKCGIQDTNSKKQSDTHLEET

Binder	Promega assay antagonist (EC50, ug/mL) [µg/mL]
B1	0.27
B2	0.111
B3	0.0415
B4	1.23
B5	0.28
B6	1.12
B7	0.158
B8	0.55
B9	0.12
B10	3.13
B11	2.25
B12	0.042
B13	0.088
B14	9.8

These binders were tested against T1, human PD-L1 protein (soluble) (human, UniProt Q9NZQ7 19-239) (assay: SPR, mAb captured on anti-human IgG Fc, PD-L1 as analyte;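 for koff: array SPR with mAb supernatants captured at several densities, PD-L1 injected for 5 min then 15 min dissociation, non-regenerative kinetic series, double-referenced against interspot surface and blank injection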;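 for kon: array SPR with mAb supernatants captured at several densities, PD-L1 injected for 5 min then 15 min dissociation, non-regenerative kinetic series, double-referenced against interspot surface and blank injection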).
T1 construct: also called PD-L1 (R&D Systems); His-tagged PD-L1 protein
T1 sequence (Q9NZQ7 19-239 limits assumed): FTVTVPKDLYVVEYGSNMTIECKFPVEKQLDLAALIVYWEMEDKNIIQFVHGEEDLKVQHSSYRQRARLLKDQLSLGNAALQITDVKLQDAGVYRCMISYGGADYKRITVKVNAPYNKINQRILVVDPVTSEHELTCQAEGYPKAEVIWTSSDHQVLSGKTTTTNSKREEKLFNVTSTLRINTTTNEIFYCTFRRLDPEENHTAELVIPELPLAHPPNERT
Protocol: (§1) The surface was then deactivated with 1 M ethanolamine pH 8.5 (Carterra Inc.). Running buffer used for the lawn immobilization was HBS-EPC (10 mM HEPES, 150 mM NaCl, 3 mM EDTA, 0.05% Tween 20, pH 7.4; Teknova).
(§2) The sensor chip was then transferred to a continuous flow microspotter (CFM; Carterra Inc.) for array capturing. The mAb supernatants were diluted 50-fold (3-10 mg/mL final concentration) into HBS-EPC with 1 mg/mL BSA. The samples were each captured twice with 15-minute and 4-minute capture steps on the first and second prints, respectively, to create multiple densities, using a 65 mL/min flow rate. The running buffer in the CFM was also HBS-EPC.
(§3) Next, the sensor chip was loaded onto an SPR reader (MX-96 system; Ibis Technologies) for the kinetic analysis. […] PD-L1 injections were 5 minutes with a 15-minute dissociation at 8 mL/second in a non-regenerative kinetic series. An injection of the goat anti-Human IgG Fc capture antibody at 75 mg/mL was injected at the end of the series to verify the capture level of each mAb. Binding data was double referenced by subtracting an interspot surface and a blank injection and analyzed for ka (on-rate), kd (off-rate), and KD (affinity) using the Kinetic Interaction Tool software (Carterra Inc.).

Binder	Kd [µM]
B1	0.042
B2	0.016
B3	0.00013
B4	0.148
B5	0.026
B6	0.124
B7	0.066
B8	0.227
B9	0.005
B10	0.08
B11	0.335
B15	0.675
B16	0.246
B12	0.0035
B17	0.567
B18	0.86
B13	0.442

Target: T1, human PD-L1 protein (soluble)
Experiment: as above
Remark: another data set of the same source
Protocol: as §1, §2, §3

Binder	Kd [µM]	koff [s⁻¹]	kon [M⁻¹ s⁻¹]
B1	0.0409	0.018	440000
B2	0.0158	0.0049	310000
B3	0.00013	0.00013	1e+06
B4	0.146	0.038	260000
B5	0.0262	0.0055	210000
B6	0.126	0.039	310000
B7	0.0647	0.011	170000
B8	0.227	0.022	97000
B9	0.00514	0.0019	370000
B10	0.0813	0.013	160000
B11	0.335	0.077	230000
B15	0.688	0.11	160000
B16	0.25	0.035	140000
B12	0.00345	0.0038	1.1e+06
B17	0.565	0.0035	6200
B18	0.867	0.013	15000
B13	0.438	0.035	80000

Each binder was assayed against T2, cyno PD-L1 (cyno) (assay: BLI (Octet), antibody on AHC biosensor, cyno PD-L1 as analyte).
T2 construct: Soluble analyte in BLI
Protocol: For BLI, antibodies were loaded onto an Anti-Human IgG Fc (AHC) biosensor using the Octet Red96 system (ForteBio). Loaded biosensors were dipped into antigen dilutions beginning at 300 nM, with 6 serial dilutions at 1:3. Kinetic analysis was performed using a 1:1 binding model and global fitting.

Binder	Kd [µM]
B1	0.0274
B3	0.00031
B4	0.0577
B5	0.0209
B6	0.101
B7	0.0177
B9	0.0083
B10	0.0759
B11	0.762
B16	0.532
B12	0.0052

The binders below were run against T3, rhPD-L1-Fc (human, UniProt Q9NZQ7 19-239, limits assumed) (assay: competition ELISA: plate-bound rhPD-L1-Fc, antibody titrated, competitor rhCD80-His detected).
T3 construct: Recombinant human PD-L1-Fc coated on ELISA plates; not shown: Fc part
T3 sequence (Q9NZQ7 19-239 limits assumed): as above

Binder	EC50 [mg/L]
B1	2.24
B2	2.62
B3	0.4
B4	0.6
B5	1.49
B6	0.6
B7	0.56
B9	0.99
B16	0.64
B12	0.87
